Assay: soluble on expression in E. coli; label from the status in PepcDB or PDB records

Sequence | soluble on expression in E. coli
MSFDSLGLSPDILRAVAEQGYREPTPIQQQAIPAVLEGRDLMASAQTGTGKTAGFTLPLLQHLITRQPHAKGRRPVRALILTPTRELAAQIGENVRDYSKYLNIRSLVVFGGVSINPQMMKLRGGVDVLVATPGRLLDLEHQNAVKLDQVEILVLDEADRMLDMGFIHDIRRVLTKLPAKRQNLLFSATFSDDIKALAEKLLHNPLEIEVARRNTASDQVTQHVHFVDKKRKRELLSHMIGKGNWQQVLVFTRTKHGANHLAEQLNKDGIRSAAIHGNKSQGARTRALADFKSGDIRVLVATDIAARGLDIEELPHVVNYELPNVPEDYVHRIGRTGRAAATGEALSLVCVDEHKLLRDIEKLLKKEIPRIAIPGYEPDPSIKAEPIQNGRQQRGGGGRGQGGGRGQQQPRRGEGGAKSASAKPAEKPSRRLGDAKPAGEQQRRRRPRKPAAAQ | soluble
MSFFFLEVLTYFDYDSSMTIKAEIKALAKEIGISKIGFTTADNFDYLEKSLRASVEEGRNSGFEHKVIEDRIYTERLLESAKTIISIGVAYPHKLPQQPQKTPYKRGKITPSSWGLDYHYVVGEKLDRLSKGIEELCRDFPLQQKAMVDTGALVDTAVAQRAGIGFIGKNGLVISKEYGSYMFLGELITNLEIEPDKPVDYDCGDCRRCLDACPTSCLIGDGSMNAKRCLSFQTQDKGMMDIEFRKKIKTVIYGCDICQICCPYNKGINNSPATEIDPELAQPELIPFLSLSNGKFKEKFGMIAGSWRGKNILQRNAIIALANAHDKTAVVKLIEIIDKNNNPIHTATAIWALGEIVKKPNDEILAFMSHLTLKDEDSRKELELIRHKWQF | not soluble
MSFKDYEYKRPNIEELKEKFTVALEKFDNAKTVEEQKQVIHSINEIRNDFGTMGNLCYIRHSVDTTDAFYKEEQDFFDEFSPVVQGYGTKYYNALIHSPFREELEAYYGKQLFALAECDLKTYSDEVVKDLQLENKLSSQYTQLLASAKIDFAGEERTLSQLIPFMQGKERSERKAASEAYYGFLAENEEELDRIYDELVKVRTKIAKSLGFKNFVELGYARMYRTDYNAEMVANYRQQVLDYIVPVTTELRKRQQARIGVEKLAYYDENFEFPTGNPTPKGDADWIVNHGKTMYKELSAETDEFFNFMLDNDLLDLVAKKGKAGGGYCTYIENYKAPFIFSNFNGTSGDIDVLTHEAGHAFQVYESRKFEIPEYNWPTYEACEIHSMSMEFFTWPWMKLFFEEDADKYYFSHLSSALLFLPYGVSVDEYQHYVYENPEASPEERKTAWRNIEKKYLPHRDYEDNDYLERGGFWQRQGHIYSSPFYYIDYTLAQICALQFWKRARDNRQEAWEDYVNLCQQGGSKSFLELVEVANLTSPFAEGCVKSVITEIEAWLHAIDDTKL | not soluble
MSFRHFKRRLDTSSADESSSADEEHPDQNVSLTEKSASLSHSDLGGEILNGTGKNRTPNDGQESNESDGSPESDESPESEESSDNSDSSDSDDMRPLPRPLFMKKKANNLQKATKIDQPWNAQDDARVLQTKKENMIKNIDKANQVAKNYETMKLRLNTNYSTNEELIKQCLLLDDNDEVDSEKERQKWFERQNERKQKHRRIQLAKQRESEEYEAKRFEAMQKGKDGNTKYDVILDKEKEKLDHKKQRSAEKVEKSHNNNRYKITRTKNVEFGDLGKNSRDYEETEYSVI | soluble
MSFSRRPKVTKSDIVDQIALNIKNNNLKLEKKYIRLVIDAFFEELKSNLCSNNVIEFRSFGTFEVRKRKGRLNARNPQTGEYVKVLDHHVAYFRPGKDLKERVWGIKG | soluble
MSFTQLMRVSMKIAFIGEAVSGFGGMETVIRDVITTFRQQHIQSEMFFFCRNDKMDKGWLEGIKYSCSFSNIRLGFLRRAKHIHALSKWLQEYQPDIVICIDVISCLFAAKARKKSGIDMPVFSWPHFSLDHKKHAEYITCADYHLAISSGIKQQMINRGVAESTINVIFNPVETKDSVIPAPEEGETATFIYVGRMKFEGQKRVKDLLDGLSQAKGNWKLHVLGDGSDFEKCQAYGRELNIDDRIVWYGWQQYPWELVQQDIEKVSALLLTSSFEGFPMTLLEALSWGIPCISADCVSGPADIIQPDVNGHLYQPGDIAGFVTLLNKYIAGEIHIEHEKIPASIDEFYQSKYYDRLHKVIISAISRRK | not soluble
MSFVKKTKNFFGLDGEADPYMEHSDAYYDEPRYEPAPAYSAPRYEEPIYASARPRAARPMPTHIVPVRLLTYSDAAIKVGDPFRDGDAVVFDMSDMHKGEAKRIIDFAAGLCFALRGQMRKLDGRIFALVPESASVDENDLKHAAGLIHLEHHHHHH | not soluble
MSFVNVDPFGMLAAAATLESLGSHMAVSNAAVASVTTKVPPPAADYVSKKLSLFFSSHGQQYQVQAARGTAFHRKLVRTLANGALAYEEVEIANNEGF | not soluble
MSGAAKRVATSSVNWSKLAERLVPEHAAELTRVKGVSGTFQSAVSQLPADLPKIDFAALKKALPAHSAVLDSLQKQYESVKIPYGEVPAEYLKEVDQWVDYNNARIKLHEVKVADGLQEAKKVEEKWAKAPPVEHFDRQHFVEYFPAHFYDLRYQNRIPDPCNIGLNETPEIENRFKDYKVLRRADKVDDH | not soluble
MSGAFNNDGRGISPLIATSWERCNKLMKRETWNVPHQAQGVTFASIYRRKKAMLTLGQAALEDAWEYMAPRECALFILDETACILSRNGDPQTLQQLSALGFNDGTYCAEGIIGTCALSLAAISGQAVKTMADQHFKQVLWNWAFCATPLFDSKGRLTGTIALACPVEQTTAADLPLTLAIAREVGNLLLTDSLLAETNRHLNQLNALLESMDDGVISWDEQGNLQFINAQAARVLRLDATASQGRAITELLTLPAVLQQAIKQAHPLKHVEATFESQHQFIDAVITLKPIIETQGTSFILLLHPVEQMRQLMTSQLGKVSHTFAHMPQDDPQTRRLIHFGRQAARSSFPVLLCGEEGVGKALLSQAIHNESERAAGPYIAVNCELYGDAALAEEFIGGDRTDNENGRLSRLELAHGGTLFLEKIEYLAVELQSALLQVIKQGVITRLDARRLIPIDVKVIATTTADLAMLVEQNRFSRQLYYALHAFEITIPPLRMRRGSIPALVNNKLRSLEKRFSTRLKIDDDALARLVSCAWPGNDFELYSVIENLALSSDNGRIRVSDLPEHLFTEQATDDVSATRLSTSLSFAEVEKEAIINAAQVTGGRIQEMSALLGIGRTTLWRKMKQHGIDAGQFKRRV | soluble
MSGIFGVIVSGRTPIEVVPVSDTEFTCEIVNADAINHVVVFLTGAQPFPDGIGGSGDHFQNFPPKKTQFISVYIRWPTQDGGNWHYLGFICNEKPSAIYKVAQLHKSDASHSFSQFDNQMQLYSSGSAQIGINAESLSDITGRQAADGTQASQQVKNLEKNT | soluble
MSGKEPLNPNPVIASGRKCRLKDSSDGIFRKGRDALEKTAFQAGILFARQRGGIGRAGKRTGGGSFMPSESPPLRLFAKKVGKGTYNPVQSSINI | not soluble
MSGLHILAFGAHADDVEIGMAGTIAKYTKQGYEVGICDLTEADLSSNGTIELRKEEAKVAARIMGVKTRLNLAMPDRGLYMKEEYIREIVKVIRTYKPKLVFAPYYEDRHPDHANCAKLVEEAIFSAGIRKYMPELSPHRVESFYNYMINGFHKPNFCIDISEYLSIKVEALEAYESQFSTGSDGVKTPLTEGYVETVIAREKMFGKEVGVLYAEGFMSKKPVLLHADLLGGCK | not soluble
MSGLVLGQRDEPAGHRLSQEEILGSTKVVSQGLEALHSEHQAVLQSLSHTIECLQQGGHEEGLVHEKARQLRRSMENIELGLSEAQVMLALASHLSTVESEKQKLRAQVRRLCQENQWLRDELAGTQQRLQRSEQAVAQLEEEKKHLEFLRQLRQYDEDGHGMEEKEGEATKDSLDDLFPNEEEEDSGNDLSRGQGAAAAQQGGYEIPARLRTLHNLVIQYAAQGRYEVAVPLCKQALEDLERTSGRGHPDVATMLNILALVYRDQNKYKEAAHLLNDALSIRESTLGRDHPAVAATLNNLALLSVWGWPTGLPCPGLFYPLLPHYRSTYFTVSLINEPGNI | soluble

Source: the DeepSol protein solubility set
